# Reference: US20200223906A1
# Legend:
# [1] = target: human metapneumovirus (HMPV) F protein on GFP-expressing hMPV recombinant virus (NL/1/00, A1 sublineage) (human metapneumovirus); assay: cell-based or functional assay
# [2] = target: RSV F protein of subtype A (strain A2) on recombinant mKate-RSV (respiratory syncytial virus subtype A (strain A2)) (UniProt P03420); assay: cell-based or functional assay
substance,measurement,setting,value
MPE8 (antibody),HMPV-A1 IC50,[1],0.07 µg/mL
same,RSV-A2 IC50,[2],0.04 µg/mL
